Like-named read-outs stand apart in the source and are kept apart here.
Columns and labels:
[1] = target: biotinylated hBLyS-ECD (human) (UniProt Q9Y275); assay: blocking ELISA: biotinylated hBLyS-ECD on coated BAFF R, antibody 0.0064 nM
[2] = target: human BLyS (full length, arginine to histidine at position 132) on CHO-K1 cells (human) (UniProt Q9Y275); assay: flow cytometry, CHO-K1 hBLyS cells, antibody 0.534 nM
[3] = target: cynomolgus BLyS (full length, arginine to histidine at position 132) on CHO-K1 cells (cynomolgus); assay: flow cytometry, CHO-K1 cynoBLyS cells, antibody 0 nM
Sequence of cynomolgus BLyS (full length, arginine to histidine at position 132) on CHO-K1 cells (cynomolgus) (Q9Y275 other isoform, or with tags, fused parts or gaps limits assumed): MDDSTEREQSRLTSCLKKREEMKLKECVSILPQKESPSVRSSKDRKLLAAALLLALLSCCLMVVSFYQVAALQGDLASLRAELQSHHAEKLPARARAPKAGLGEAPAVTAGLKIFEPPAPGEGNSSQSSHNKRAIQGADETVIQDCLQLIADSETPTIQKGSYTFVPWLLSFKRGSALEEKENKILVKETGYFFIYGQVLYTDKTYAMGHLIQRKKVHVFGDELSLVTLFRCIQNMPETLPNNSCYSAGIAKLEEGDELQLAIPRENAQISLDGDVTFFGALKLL

[4] = target: cynomolgus BLyS (full length, arginine to histidine at position 132) on CHO-K1 cells (cynomolgus); assay: flow cytometry, CHO-K1 cynoBLyS cells, antibody 0.0213 nM
[5] = target: biotinylated hBLyS-ECD (human) (UniProt Q9Y275); assay: blocking ELISA: biotinylated hBLyS-ECD on coated BAFF R, antibody 4 nM
[6] = target: biotinylated hBLyS-ECD (human) (UniProt Q9Y275); assay: ELISA, biotinylated hBLyS-ECD captured on streptavidin; antibody 13.3 nM
[7] = target: human BLyS (full length, arginine to histidine at position 132) on CHO-K1 cells (human) (UniProt Q9Y275); assay: flow cytometry, CHO-K1 hBLyS cells, antibody 0.0213 nM
[8] = target: biotinylated hBLyS-ECD (human) (UniProt Q9Y275); assay: ELISA, biotinylated hBLyS-ECD captured on streptavidin; antibody 0 nM (blank)
[9] = target: human BLyS (full length, arginine to histidine at position 132) on CHO-K1 cells (human) (UniProt Q9Y275); assay: flow cytometry, CHO-K1 hBLyS cells, antibody 0.107 nM
[10] = target: biotinylated hBLyS-ECD (human) (UniProt Q9Y275); assay: ELISA, biotinylated hBLyS-ECD captured on streptavidin; antibody 66.7 nM
biotinylated hBLyS-ECD [11] = target: T1, biotinylated hBLyS-ECD (human, UniProt Q9Y275 134-285, biotinylated with Biotin-X-X-NHS (molar ratio 7:1); sites not stated); assay: ELISA on captured biotinylated hBLyS-ECD; antibody 13.3 nM
T1 construct: also called biotinylated immunogen; biotinylated hBLvS-ECD

[12] = target: T2, extracellular domain of human BLyS protein (hBLyS-ECD), His-tagged, Ala134-Leu285 (human, UniProt Q9Y275 134-285); assay: SPR (Biacore), antibody captured by anti-human Fc, hBLyS-ECD as analyte
T2 construct: Expressed in HEK293 cells and purified on a Ni column; also called immunogen
Protocol: Affinity constants were determined using a Biacore X100 instrument (purchased from GE Healthcare). Detailed operations and methods referred to the instrument manuals and detailed methods provided by manufacturers, specifically: determining affinity constant using a CM5 chip (Sensor Chip CM5, purchased from GE Healthcare). […] Then 1 M ethanolamine was injected in chip to block the remaining activation sites. After the antibody to be tested (i.e., the human BLyS antibody prepared by Embodiment 2) was captured by chip, 7 different gradient of immunogen dilutions (i.e., hBLyS-ECD) prepared by Embodiment 1 were injected and the binding and dissociation of antigen with antibody was detected by a Biacore instrument. The dissociation constant and binding constant were then fitted by Biacore X100 Evaluation Software 2.0, while the affinity constant was the ratio of dissociation constant to binding constant.
The binding and dissociation between antibody and antigen was detected by Biacore.

biotinylated hBLyS-ECD [13] = target: T1, biotinylated hBLyS-ECD; assay: ELISA on captured biotinylated hBLyS-ECD; antibody 0.534 nM
[14] = target: T2, extracellular domain of human BLyS …; assay: cell-based or functional assay
biotinylated hBLyS-ECD [15] = target: T1, biotinylated hBLyS-ECD; assay: ELISA on captured biotinylated hBLyS-ECD; antibody 0.534 nM; remark: listed apart in the source
[16] = target: T2, extracellular domain of human BLyS …; assay: SPR (Biacore), antibody captured by anti-human Fc, hBLyS-ECD as analyte; remark: listed apart in the source
biotinylated hBLyS-ECD [17] = target: T1, biotinylated hBLyS-ECD; assay: ELISA on captured biotinylated hBLyS-ECD; antibody 2.67 nM
biotinylated hBLyS-ECD [18] = target: T1, biotinylated hBLyS-ECD; assay: ELISA on captured biotinylated hBLyS-ECD; antibody 0.107 nM
biotinylated hBLyS-ECD [19] = target: T1, biotinylated hBLyS-ECD; assay: BAFF R-coated ELISA, biotinylated hBLyS-ECD bound in presence of antibody 100 nM
biotinylated hBLyS-ECD [20] = target: T1, biotinylated hBLyS-ECD; assay: ELISA on captured biotinylated hBLyS-ECD; antibody 0.00427 nM
biotinylated hBLyS-ECD [21] = target: T1, biotinylated hBLyS-ECD; assay: ELISA on captured biotinylated hBLyS-ECD; antibody 66.7 nM

Sequence of human BLyS (full length, arginine to histidine at position 132) on CHO-K1 cells (human) (Q9Y275 whole entry R130H, the tested form may be a part): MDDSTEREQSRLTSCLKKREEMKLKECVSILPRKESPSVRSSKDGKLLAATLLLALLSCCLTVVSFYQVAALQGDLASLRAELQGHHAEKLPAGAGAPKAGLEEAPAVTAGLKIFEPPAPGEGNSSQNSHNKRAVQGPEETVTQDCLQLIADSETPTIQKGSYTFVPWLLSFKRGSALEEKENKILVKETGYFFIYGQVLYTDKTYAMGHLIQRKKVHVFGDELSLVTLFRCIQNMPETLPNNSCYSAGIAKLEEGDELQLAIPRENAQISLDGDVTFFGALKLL

Row | Molecule | OD450 nm [1] [OD450 nm] | MFI [2] [MFI] | MFI [3] [MFI] | MFI [4] [MFI] | OD450 nm [5] [OD450 nm] | OD450 nm [6] | MFI [7] [MFI] | OD450 nm [8] | MFI [9] [MFI] | OD450 nm [10] | OD450 nm (biotinylated hBLyS-ECD [11]) [OD450 nm] | Kd [12] [nM] | koff [12] [s⁻¹] | kon [12] [M⁻¹ s⁻¹] | OD450 nm (biotinylated hBLyS-ECD [13]) [OD450 nm] | OD450 nm (as headed), mouse B lymphocyte proliferation; antibody 0 nM [14] | OD450 nm (as headed), mouse B lymphocyte proliferation; antibody 0.000256 nM [14] | OD450 nm (as headed), mouse B lymphocyte proliferation; antibody 0.00128 nM [14] | OD450 nm (as headed), mouse B lymphocyte proliferation; antibody 0.0064 nM [14] | OD450 nm (as headed), mouse B lymphocyte proliferation; antibody 0.032 nM [14] | other results
1 | mIgG Control (antibody) | 1.4 | 30.7 | 19.8 | 19.8 | 1.41 | 0.0627 | 32.7 | 0.0574 | 31.6 | 0.0708 | – | – | – | – | – | – | – | – | – | – | –
2 | c8E7D9C7F5 (antibody, V domains shown, also called chimeric antibody c8E7D9C7F5) VH: QVQLQQSGVELARPGASVKLSCKASGYTFTSYGISWVKQRTGQALEWIGEIYPRSGNTYYNEKFKGKATLTADKSSSTAYMELRSLTSEDSAVYFCARSGPITTLVATDYGMDYWGQGTSVTVSS VL: DIVLTQSPASLAVSLGQRATISCRASKSVSTSSYSYMHWYQQKPGQPPKLLIKFASNLESGVPARFSGSGSGTDFTLNIHPVEEEDAATYYCQHSREFPYTFGGGTKLEIK | – | – | – | – | – | – | – | – | – | – | 3.32 | 2.94 | 0.000714 | 243000 | 3.07 | 4750 | 4970 | 5150 | 5280 | 4620 | OD450 nm (as headed), mouse B lymphocyte proliferation; antibody 0.16 nM [14]: 4110; OD450 nm (as headed), mouse B lymphocyte proliferation; antibody 0.8 nM [14]: 2070; OD450 nm (as headed), mouse B lymphocyte proliferation; antibody 4 nM [14]: 488; OD450 nm (as headed), mouse B lymphocyte proliferation; antibody 20 nM [14]: 367; OD450 nm (as headed), mouse B lymphocyte proliferation; antibody 100 nM [14]: 345; OD450 nm (biotinylated hBLyS-ECD [15]): 1.97 OD450 nm; Kd [16]: 2.38 nM; koff [16]: 0.00109 s⁻¹; kon [16]: 456000 M⁻¹ s⁻¹; OD450 nm (biotinylated hBLyS-ECD [17]): 3.24 OD450 nm; OD450 nm (biotinylated hBLyS-ECD [18]): 1.28 OD450 nm; OD450 nm (biotinylated hBLyS-ECD [19]): 0.53 OD450 nm; OD450 nm (biotinylated hBLyS-ECD [20]): 0.176 OD450 nm; OD450 nm (biotinylated hBLyS-ECD [21]): 3.31 OD450 nm

Now from value to molecule, other results behind:

Row | OD450 nm [1] [OD450 nm] | MFI [2] [MFI] | MFI [3] [MFI] | MFI [4] [MFI] | OD450 nm [5] [OD450 nm] | OD450 nm [6] | MFI [7] [MFI] | OD450 nm [8] | MFI [9] [MFI] | OD450 nm [10] | OD450 nm (biotinylated hBLyS-ECD [11]) [OD450 nm] | Kd [12] [nM] | koff [12] [s⁻¹] | kon [12] [M⁻¹ s⁻¹] | OD450 nm (biotinylated hBLyS-ECD [13]) [OD450 nm] | OD450 nm (as headed), mouse B lymphocyte proliferation; antibody 0 nM [14] | OD450 nm (as headed), mouse B lymphocyte proliferation; antibody 0.000256 nM [14] | OD450 nm (as headed), mouse B lymphocyte proliferation; antibody 0.00128 nM [14] | OD450 nm (as headed), mouse B lymphocyte proliferation; antibody 0.0064 nM [14] | OD450 nm (as headed), mouse B lymphocyte proliferation; antibody 0.032 nM [14] | Molecule | other results
3 | 1.14 | 33.4 | 20.7 | 22.4 | 1.09 | 0.102 | 33.6 | 0.103 | 32.9 | 0.148 | – | – | – | – | – | – | – | – | – | – | hIgG Control (antibody) | –
4 | – | – | – | – | – | – | – | – | – | – | 3.33 | 1.49 | 0.000179 | 121000 | 3.26 | 4440 | 5020 | 4870 | 5280 | 4450 | c97A3C2H4 (antibody, V domains shown, also called chimeric antibody c97A3C2H4) VH: EVKLVESGGGLVQPGGSLKLSCAASGFTFSTYTMSWVRQTPEKRLEWVAYISYGGGSTSYPDTVKGRFTISRDNAKNTLYLQMSSLKSEDTAIYYCTRHVTVVENSMDYWGQGTSVTVSS VL: DILLTQSPDILSVSPGERVSFSCRASQSIGTSIHWYQQRTNGSPRLLIKYVSESFSGTPSRFSGSGSGTAFTLTINSVESEDIADYYCQQTHSWPWTFGGGTKLEIK | OD450 nm (as headed), mouse B lymphocyte proliferation; antibody 0.16 nM [14]: 3740; OD450 nm (as headed), mouse B lymphocyte proliferation; antibody 0.8 nM [14]: 1460; OD450 nm (as headed), mouse B lymphocyte proliferation; antibody 4 nM [14]: 578; OD450 nm (as headed), mouse B lymphocyte proliferation; antibody 20 nM [14]: 424; OD450 nm (as headed), mouse B lymphocyte proliferation; antibody 100 nM [14]: 444; OD450 nm (biotinylated hBLyS-ECD [15]): 1.91 OD450 nm; Kd [16]: 0.446 nM; koff [16]: 7.34e-05 s⁻¹; kon [16]: 165000 M⁻¹ s⁻¹; OD450 nm (biotinylated hBLyS-ECD [17]): 3.32 OD450 nm; OD450 nm (biotinylated hBLyS-ECD [18]): 1.19 OD450 nm; OD450 nm (biotinylated hBLyS-ECD [19]): 0.474 OD450 nm; OD450 nm (biotinylated hBLyS-ECD [20]): 0.25 OD450 nm; OD450 nm (biotinylated hBLyS-ECD [21]): 3.3 OD450 nm

Reference: patent US20210347873A1 (SHANGHAI PHARMAEXPLORER, published 2021)
